# Patent US9289381B2, “Stabilization and storage of biological pharmaceutical compositions” (The University of North Carolina at Charlotte, priority 2009, dated 2016)
# Values joined by “and” are separate entries in the source; they are usually repeats but may differ in a detail not shown here. Equal values may be shown once.
# Assay: Microcalorimetry (DSC) of HEWL dispersions stored in 80% w/w CDHP or 0.1M NaOAc
# Assay type: physicochemical
# Set-up: Thermal transition midpoint temperature of HEWL: unit not given here
# Procedure: The samples were formulated in 2 ml silanized glass vials to reduce protein-surface interactions, covered with cap and septa, wrapped with parafilm to ensure no drying out of the sample, and stored away from sunlight. They were stirred for at least 24 hours until a homogeneous distribution of protein was obtained. […] The 35 silanized vials were exposed to UV light for 24 hours to ensure sterility. Control samples at equivalent concentrations were also prepared in triplicates in 0.1M NaOAc buffer (pH 4). Samples were tested for thermal stability via microcalorimetry and functional activity via the micrococcus lysodeikticus assay at monthly intervals.
# A MicroCal VP-DSC microcalorimeter was used to assess thermal structural stability of all samples. Baseline repeatability was established with a minimum of 5 buffer-buffer scans. […] HEWL solutions were tested similarly with no dilution of the samples. Between samples, during the filling period of 15° C. to 25° C., the sample cell of the DSC was flushed with at least 25 ml distilled H2O, then at least 15 ml NaOAc to ensure no sample residue remained behind. Thermal profiles, enthalpy changes, and transition temperatures were obtained with Origin software.
# All formulations were diluted to 0.1-0.5 mg/ml for testing. This allows one to observe how well protein thermal stability and structural integrity is maintained following storage and then dilution into a solution of similar composition as the environment of the body.
# [1] = stored at 10 mg/ml in Choline dhp, 1 month
# [2] = stored at 10 mg/ml in Choline dhp, 2 months
# [3] = stored at 10 mg/ml in Choline dhp, 3 months
# [4] = stored at 10 mg/ml in Choline dhp, 4 months
# [5] = stored at 10 mg/ml in Choline dhp, 5 months
# [6] = stored at 100 mg/ml in Choline dhp, 0 months
# [7] = stored at 100 mg/ml in Choline dhp, 1 month
# [8] = stored at 100 mg/ml in Choline dhp, 2 months
substance,measurement,setting,value
"HEWL: hen egg white lysozyme (HEWL), a well characterized protein, purchased from Worthington Biochem","enthalpic change during unfolding at 1 month, % of the maximum (average)",10 mg/ml HEWL control formulation (0.1M NaOAc),64%
same,"enthalpic change during unfolding at 1 month, % of the maximum (average)",10 mg/ml HEWL in 80% w/w CDHP,87%
same,"enthalpic change during unfolding at 1 month, % of the maximum (average)",100 mg/ml HEWL control formulation (0.1M NaOAc),60%
same,"enthalpic change during unfolding at 1 month, % of the maximum (average)",100 mg/ml HEWL in 80% w/w CDHP,85%
same,"shelf-life (fraction of folded protein, Cp signal)","80% CDHP wt/wt vs 0.1M sodium acetate pH 4.0, 1-3 months at room temperature",superior shelf-life
same,drop of Tm over 5 months,HEWL control formulations (0.1M NaOAc),between one and two degrees
same,drop of Tm over 5 months,HEWL formulated in 80% w/w CDHP,less than a degree
same,Enthalpy of unfolding of HEWL,"stored at 10 mg/ml in 0.1M NaOAc, 0 months",99.49 kcal/mol and 102.53 kcal/mol and 105.48 kcal/mol
same,Enthalpy of unfolding of HEWL,"stored at 10 mg/ml in 0.1M NaOAc, 1 month",71.64 kcal/mol and 67.32 kcal/mol and 58.77 kcal/mol
same,Enthalpy of unfolding of HEWL,"stored at 10 mg/ml in 0.1M NaOAc, 2 months",53.856 kcal/mol and 52.812 kcal/mol and 56.88 kcal/mol
same,Enthalpy of unfolding of HEWL,"stored at 10 mg/ml in 0.1M NaOAc, 3 months",39.168 kcal/mol and 40.734 kcal/mol and 40.69 kcal/mol
same,Enthalpy of unfolding of HEWL,"stored at 10 mg/ml in 0.1M NaOAc, 4 months",24.8706 kcal/mol and 36.9316 kcal/mol and 26.9568 kcal/mol
same,Enthalpy of unfolding of HEWL,"stored at 10 mg/ml in 0.1M NaOAc, 5 months",18.4 kcal/mol and 20.9 kcal/mol and 22.4 kcal/mol
same,Enthalpy of unfolding of HEWL,"stored at 10 mg/ml in Choline dhp (80% w/w CDHP), 0 months",102 kcal/mol and 101.7 kcal/mol and 108.3 kcal/mol
same,Thermal transition midpoint temperature of HEWL,"stored at 10 mg/ml in Choline dhp, 0 months",346.71 and 346.74
same,Enthalpy of unfolding of HEWL,[1],90.932 kcal/mol and 90.855 kcal/mol and 89.61 kcal/mol
same,Thermal transition midpoint temperature of HEWL,[1],346.7 and 346.62 and 346.75
same,Enthalpy of unfolding of HEWL,[2],80.771 kcal/mol and 79.236 kcal/mol and 79.113 kcal/mol
same,Thermal transition midpoint temperature of HEWL,[2],346.84 and 346.81 and 346.39
same,Enthalpy of unfolding of HEWL,[3],56.64 kcal/mol and 55.227 kcal/mol and 63.418 kcal/mol
same,Thermal transition midpoint temperature of HEWL,[3],346.98 and 346.52 and 346.35
same,Enthalpy of unfolding of HEWL,[4],46.7208 kcal/mol and 47.358 kcal/mol and 51.147 kcal/mol
same,Thermal transition midpoint temperature of HEWL,[4],346.47 and 346.43 and 346.5
same,Enthalpy of unfolding of HEWL,[5],36.9 kcal/mol and 43 kcal/mol
same,Thermal transition midpoint temperature of HEWL,[5],346.27 and 346.37 and 346.21
same,Thermal transition midpoint temperature of HEWL,"stored at 10 mg/ml in NaOAc, 0 months",346.68 and 346.77 and 347.14
same,Thermal transition midpoint temperature of HEWL,"stored at 10 mg/ml in NaOAc, 1 month",345.79 and 345.93 and 345.94
same,Thermal transition midpoint temperature of HEWL,"stored at 10 mg/ml in NaOAc, 2 months",345.85 and 345.9 and 345.8
same,Thermal transition midpoint temperature of HEWL,"stored at 10 mg/ml in NaOAc, 3 months",345.72 and 345.9 and 345.48
same,Thermal transition midpoint temperature of HEWL,"stored at 10 mg/ml in NaOAc, 4 months",345.17 and 345.1 and 345.21
same,Thermal transition midpoint temperature of HEWL,"stored at 10 mg/ml in NaOAc, 5 months",345.13 and 345.05 and 345.15
same,Enthalpy of unfolding of HEWL,"stored at 100 mg/ml in 0.1M NaOAc, 0 months",101.14 kcal/mol and 105.2 kcal/mol and 108.2 kcal/mol
same,Enthalpy of unfolding of HEWL,"stored at 100 mg/ml in 0.1M NaOAc, 1 month",62.01 kcal/mol and 56.61 kcal/mol and 71.973 kcal/mol
same,Enthalpy of unfolding of HEWL,"stored at 100 mg/ml in 0.1M NaOAc, 2 months",58.311 kcal/mol and 60.858 kcal/mol and 54.729 kcal/mol
same,Enthalpy of unfolding of HEWL,"stored at 100 mg/ml in 0.1M NaOAc, 3 months",46.606 kcal/mol and 46.506 kcal/mol and 46.224 kcal/mol
same,Enthalpy of unfolding of HEWL,"stored at 100 mg/ml in 0.1M NaOAc, 4 months",30.8889 kcal/mol and 32.07177 kcal/mol and 29.8026 kcal/mol
same,Enthalpy of unfolding of HEWL,"stored at 100 mg/ml in 0.1M NaOAc, 5 months",26.8 kcal/mol and 29.1 kcal/mol and 23.9 kcal/mol
same,Enthalpy of unfolding of HEWL,[6],107.1 kcal/mol and 100.7 kcal/mol and 108.3 kcal/mol
same,Thermal transition midpoint temperature of HEWL,[6],347.45 and 347.05 and 347.11
same,Enthalpy of unfolding of HEWL,[7],89.97 kcal/mol and 89.606 kcal/mol and 87.876 kcal/mol
same,Thermal transition midpoint temperature of HEWL,[7],346.41 and 346.54 and 346.44
same,Enthalpy of unfolding of HEWL,[8],75.132 kcal/mol and 76.824 kcal/mol and 77.544 kcal/mol
same,Thermal transition midpoint temperature of HEWL,[8],346.42 and 346.43 and 346.47
